Test results published in patent US20190300618A1 (Merck Sharp & Dohme, published 2019).
Positions count from the first letter of the chain named.

Tests used:
Assay in all cases: flow cytometry, CHO-K1; single column;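 further: CHO-K1 cells transiently transfected with hCD27 alanine mutant constructs, anti-hCD27 antibody binding measured by flow cytometry, 30 min at 4 °C, wild-type hCD27 binding taken as 100%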
Q15A = target: T1, Q15A
T1 construct: also called hCD27 Q15A
T1 receptor: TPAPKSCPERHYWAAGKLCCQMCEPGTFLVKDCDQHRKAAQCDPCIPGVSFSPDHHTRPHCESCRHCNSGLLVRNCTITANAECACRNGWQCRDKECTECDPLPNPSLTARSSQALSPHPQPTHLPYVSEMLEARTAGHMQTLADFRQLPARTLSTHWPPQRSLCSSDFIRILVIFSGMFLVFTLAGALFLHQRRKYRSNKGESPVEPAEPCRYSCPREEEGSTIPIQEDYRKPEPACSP
Description: (§1) The ability of several anti-hCD27 antibodies to bind to a series of hCD27 alanine mutants was determined using CHO-K1 cells, transiently transfected pCI-neo empty vector, pCI-neo.hCD27 and several pCI-neo.CD27Ala mutant constructs.
(§2) Detached cells were transferred to 96 wells round-bottomed well plates at approximately 1.2×10⁵ cells/well. After spinning down the cells, discarding the supernatants and re-suspending the cells in the residual volume, the primary antibodies were added and incubated for 30 minutes at 4° C. Cells were washed three times with DPBS/BSA 1%, followed by centrifugation, discarding of the supernatants and re-suspension in the residual volume. […] After washing once, antibody binding was detected using the HTS plate reader (FACS Canto II) and FlowJo software for data analysis. Debris, dead cells and doublets were excluded from the analysis. Binding was expressed as the geometric mean of the FITC signal, relative to antibody binding to hCD27, which was set at 100%.

K17A = target: T2, K17A
T2 construct: also called hCD27 K17A
T2 receptor: T1 receptor with A15Q, K17A
Description: as §1, §2

K31A = target: T3, K31A
T3 construct: also called hCD27 K31A
T3 receptor: T1 receptor with A15Q, K31A
Description: as §1, §2

H36A = target: T4, H36A
T4 construct: also called hCD27 H36A
T4 receptor: T1 receptor with A15Q, H36A
Description: as §1, §2

Q41A = target: T5, Q41A
T5 construct: also called hCD27 Q41A
T5 receptor: T1 receptor with A15Q, Q41A
Description: as §1, §2

V49A = target: T6, V49A
T6 construct: also called hCD27 V49A
T6 receptor: T1 receptor with A15Q, V49A
Description: as §1, §2

S63A = target: T7, S63A
T7 construct: also called hCD27 S63A
T7 receptor: T1 receptor with A15Q, S63A
Description: as §1, §2

R87A = target: T8, R87A
T8 construct: also called hCD27 R87A
T8 receptor: T1 receptor with A15Q, R87A
Description: as §1, §2

Q91A = target: T9, Q91A
T9 construct: also called hCD27 Q91A
T9 receptor: T1 receptor with A15Q, Q91A
Description: as §1, §2

R93A = target: T10, R93A
T10 construct: also called hCD27 R93A
T10 receptor: T1 receptor with A15Q, R93A
Description: as §1, §2

- % of WT hCD27 binding (geo mean FITC) (Q15A): 98.6%
- % of WT hCD27 binding (geo mean FITC) (K17A): 120%
- % of WT hCD27 binding (geo mean FITC) (K31A): 30.3%
- % of WT hCD27 binding (geo mean FITC) (H36A): 122%
- % of WT hCD27 binding (geo mean FITC) (Q41A): 33.9%
- % of WT hCD27 binding (geo mean FITC) (V49A): 69%
- % of WT hCD27 binding (geo mean FITC) (S63A): 104%
- % of WT hCD27 binding (geo mean FITC) (R87A): 114%
- % of WT hCD27 binding (geo mean FITC) (Q91A): 136%
- % of WT hCD27 binding (geo mean FITC) (R93A): 131%
B1: hCD27.15-6B (humanized hCD27.15, human IgG4, Clone 6B) (antibody, V domains shown)
VH: QVQLVQSGAEVKKPGASVKVSCKASGFIIKATYMHWVRQAPGQRLEWMGRIDPANGETKYDPKFQVRVTITADTSASTAYMELSSLRSEDTAVYYCARYAWYFDVWGQGTLVTVSS
VL: DIQMTQSPSSLSASVGDRVTITCRASENIYSFLAWYQQKPGKAPKLLIYHAKTLAEGVTSRFSGSGSGTDFTLTISSLQPEDSATYYCQHYYGSPLTFGQGTRLEIKR
notes: humanized version of hCD27.15 from WO2012/004367 with identical CDR regions; also called hCD27.15 (humanized 6B); hCD27.15 6B humanized antibody
